# Measurements taken from patent publication US20240409648A1 (Boehringer Ingelheim, published 2024).
# T1: human IL-36R on cells (HEK293 cells transfected with full-length human IL-36R); NCI/ADR-RES cells; human … (human, UniProt Q9HB29 20-575)
# T1 sequence (looked up): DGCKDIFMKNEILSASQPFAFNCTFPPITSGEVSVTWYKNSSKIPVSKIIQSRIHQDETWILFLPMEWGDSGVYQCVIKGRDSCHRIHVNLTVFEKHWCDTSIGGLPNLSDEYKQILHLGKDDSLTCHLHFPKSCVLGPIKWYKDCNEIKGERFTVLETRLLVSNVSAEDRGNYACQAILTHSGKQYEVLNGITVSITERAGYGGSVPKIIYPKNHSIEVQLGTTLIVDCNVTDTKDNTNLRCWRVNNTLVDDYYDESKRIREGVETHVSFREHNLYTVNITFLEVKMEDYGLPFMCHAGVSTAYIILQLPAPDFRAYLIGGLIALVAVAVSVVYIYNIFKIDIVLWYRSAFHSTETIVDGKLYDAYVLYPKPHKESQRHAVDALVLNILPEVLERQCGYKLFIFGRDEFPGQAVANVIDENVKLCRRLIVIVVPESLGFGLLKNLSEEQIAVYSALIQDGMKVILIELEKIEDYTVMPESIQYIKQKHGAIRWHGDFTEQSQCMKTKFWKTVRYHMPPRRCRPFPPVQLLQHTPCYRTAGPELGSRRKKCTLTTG
# Molecular target: T1, human IL-36R on cells (HEK293 cells …)
# Assay: cell-based or functional assay
row,"IC90 pNFκB, trun-IL-36g, human primary keratinocytes (NHK)",Binder
1,0.5 nM,"Mouse 81B4 (antibody 81B4) (antibody, V domains shown) VH: QVQLQQPGADFVRPGASMRLSCKASGYSFTSSWIHWVKQRPGQGLEWIGEINPGNVRTNYNENFRNKATLTVDKSSTTAYMQLRSLTSADSAVYYCTVVFYGEPYFPYWGQGTLVTVSA VL: QIVLTQSPAIMSASLGERVTMTCTASSSVSSSYFHWYQQKPGSSPKLWIYRTSNLASGVPGRFSGSGSGTSYSLTISSMEAEDAATYYCHQFHRSPLTFGAGTKLELK"

# Molecular target: cynomolgus IL-36R on BaF/3 cells (cynomolgus)
# Assay: cell-based or functional assay
"IC90 pNFκB, trun-IL-36a, BaF/3 cynomolgus IL-36R cells","IC90 pNFκB, trun-IL-36b, BaF/3 cynomolgus IL-36R cells","IC90 pNFκB, trun-IL-36g, BaF/3 cynomolgus IL-36R cells",Binder
> 4000 nM,> 333 nM,> 333 nM,"antibody 172C8 (antibody, V domains shown) VH: EVQLQQSGPELVKPGASVKLSCKASGYTFTDNYMNWVRQSHGKSLEWIGRVNPSNGDTKYNQNFKGKATLTVDKSLSTAYMQLNGLTSEDSAVYYCGRTKNFYSSYSYDDAMDYWGQGTSVTVSS VL: DIQMTQSPASQSASLGESVTFTCLASQTIGTWLAWYQQRPGKSPQLLIYAATSLADGVPSRFSGSGSGTQFSFNIRSLQAEDFASYYCQQVYTTPLTFGGGTKLEIK"
0.2 nM,1.6 nM,1.5 nM,"Mouse 73C5 (antibody 73C5) (antibody, V domains shown) VH: QVQLKESGPGLVAPSQSLSITCTVSGFSLTNYAVHWVRQFPGKGLEWLGVIWSDGSTDFNAPFKSRLSINKDNSKSQVFFKMNSLQIDDTAIYYCARKGGYSGSWFAYWGQGTLVTVSA VL: DIVMTQSQKFLSTSVGVRVSVTCKASQDVGTNVLWYQQKIGQSPKPLIYSASYRHSGVPDRFTGSGSGTDFTLIISNVQSEDLAEYFCQQYSRYPLTFGPGTKLELK"
0.5 nM,0.7 nM,0.8 nM,"Mouse 73F6 (antibody 73F6) (antibody, V domains shown) VH: QVQLKESGPGLVAPSQSLSITCTVSGFSLTNYAVHWVRQFPGKGLEWLGVIWSDGSTDYNAPFKSRLSINKDNSKSQVFFKMNSLQTDDTAIYYCARKGGYSGSWFAYWGQGTLVTVSA VL: DIVMTQSQKFLSTSVGVRVSVTCKASQDVGTNVLWYQQKIGQSPKALIYSASYRHSGVPDRFTGSGSGTDFTLIITNVQSEDLAEYFCQQYSRYPLTFGPGTKLELK"
0.6 nM,0.9 nM,1 nM,"Mouse 81A1 (antibody 81A1) (antibody, V domains shown) VH: QVQLKESGPGLVAPSQSLFITCTVSGFSLSSYEINWVRQVPGKGLEWLGVIWTGITTNYNSALISRLSISKDNSKSLVFLKMNSLQTDDTAIYYCARGTGTGFYYAMDYWGQGTSVTVSS VL: DIQMTQTTSSLSASLGDRVTISCRASQDIYKYLNWYQQKPDGTLKLLIYYTSGLHSGVPSRFSGSGSGTDFSLTISNLEPEDIATYFCQQDSKFPWTFGGDTKLEIK"
1 nM,2.1 nM,1.5 nM,"Mouse 78C8 (antibody 78C8) (antibody, V domains shown) VH: QVQLKESGPVLVAPSQSLSITCTVSGFSLTKFGVHWIRQTPGKGLEWLGVIWAGGPTNYNSALMSRLTISKDISQSQVFLRIDSLQTDDTAMYYCAKQIYYSTLVDYWGQGTSVTVSS VL: DVLLTQTPLSLPVSLGDQASISCRSSQNIVHSNGNTYLQWYLQKPGQSPKLLIYKVSNRFSGVPDRFSGSGSGTDFTLKISRVEAEDLGVYYCFQGSHVPFTFGAGTKLELK"
> 4000 nM,> 333 nM,> 333 nM,"antibody 76E10 (antibody, V domains shown) VH: QVQLKESGPVLVAPSQSLSITCTVSGFSLTNYGVHWVRQPPGKGLEWLGVIWPVGSTNYNSALMSRLSIHKDNSKSQVFLRMNSLQTDDTAIYYCAKMDWDDFFDYWGQGTTLTVSS VL: DIVMTQSQKFMSATVGGRVNITCKASQNVGRAVAWYQQKPGQSPKLLTHSASNRYTGVPDRFTGSGSGTDFTLTITNMQSEDLADYFCQQYSSYPLTFGAGTKLDLK"
> 4000 nM,> 333 nM,> 333 nM,"antibody 89A12 (antibody, V domains shown) VH: EVQLQQSGAELVRPGASVRLSCTASGFNIKDDYIHWVRQRPKQGLEWLGRIDPANGNTKYDPRFQDKATITADTSSNTAYLHLSSLTSEDTAVYYCAKSFPDNYYSYDDAFAYWGQGTLVTVSA VL: DIQMTQSPASQSASLGESVTFSCLASQTIGTWLGWYQQKPGKSPQLLIYRATSLADGVPSRFSGSGSGTNFSFKISSLQAEDLASYYCQQLYSGPYTFGGGTKLEIR"
> 4000 nM,> 333 nM,> 333 nM,"antibody 67E7 (antibody, V domains shown) VH: EVQLQQSGAEFVRPGASVKFSCTASGFNIKDDYIHWVRQRPEQGLEWVGRIDPANGNTKYAPKFQDKATITADTSSNTAYLQLSSLTSEDTAVYYCAKSFPNNYYSYDDAFAYWGQGTLVTVSA VL: DIQMTQSPASQSASLGESVTFTCLASQTIGTWLGWYQQKPGKSPQLLIYRSTTLADGVPSRFSGSGSGTKFSFKISSLQAADFASYYCQQLYSAPYTFGGGTKLEIR"
2.4 nM,3.5 nM,5.1 nM,"Mouse 81B4 (antibody 81B4) (antibody, V domains shown) VH: QVQLQQPGADFVRPGASMRLSCKASGYSFTSSWIHWVKQRPGQGLEWIGEINPGNVRTNYNENFRNKATLTVDKSSTTAYMQLRSLTSADSAVYYCTVVFYGEPYFPYWGQGTLVTVSA VL: QIVLTQSPAIMSASLGERVTMTCTASSSVSSSYFHWYQQKPGSSPKLWIYRTSNLASGVPGRFSGSGSGTSYSLTISSMEAEDAATYYCHQFHRSPLTFGAGTKLELK"
> 4000 nM,> 333 nM,> 333 nM,"Mouse 33D10 (antibody 33D10) (antibody, V domains shown) VH: QVQLQQSGTELLKPGASVKLSCKASGNTVTSYWMHWVKQRPGQGLEWIGEILPSTGRTNYNENFKGKAMLTVDKSSSTAYMQLSSLASEDSAVYYCTIVYFGNPWFAYWGQGTLVTVSA VL: QIVLTQSPAIMSASLGERVTMTCTASSSVSSSYLHWYQKKPGSSPKLWVYSTSNLASGVPVRFSGSGSGTSYSLTISSMEAEDAATYYCHQHHRSPVTFGSGTKLEMK"
